From patent US7265263B1, “Potato transcription factors, methods of use thereof, and a method for enhancing tuber development” (Iowa State University Research Foundation, Inc., priority 2002, dated 2007)

Tests used:
GAD protein alone = biological target: T1, GAD protein alone (UniProt P04386 768-881, limits assumed); assay: in vitro translated 35S-labelled proteins, immunoprecipitation with anti-GAD antibodies
T1 construct: Control of the immunoprecipitation
T1 sequence (looked up): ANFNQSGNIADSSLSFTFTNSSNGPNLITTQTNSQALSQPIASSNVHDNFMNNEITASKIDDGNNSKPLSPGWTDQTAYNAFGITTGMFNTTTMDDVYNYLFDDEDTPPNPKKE
Protocol: In vitro binding experiments were performed as described by Ni et al., "PIF3, a Phytochrome-Interacting Factor Necessary for Normal Photoinduced Signal Transduction, is a Novel Basic *Helix*-Loop-Helix Protein," *Cell* 95:657-667 (1998), which is hereby incorporated by reference in its entirety. The full-length sequence for POTH1 was cloned into a pET17b/GAD fusion cassette and transcribed under the control of the T7 promoter. The BEL cDNAs were cloned into pGEM11Z vectors and were transcribed under the control of the T7 promoter. ^35S-methionine labeled bait and prey proteins were synthesized using the TnT in vitro transcription-translation kit (Promega) according to the manufacturer's protocols. Each 50 μl TnT reaction contained 2.0 μg of template plasmid DNA and 20 μmol (20 μCi) of labeled ^35S-methionine. The POTH1:GAD/BEL complex was immunoprecipitated with anti-GAD antibodies (Santa Cruz Biotechnology, Calif.). The proteins from the pellet (one-half the fraction) and for the prey (one-fourth of the reaction volume) were resolved on a 10% SDS-PAGE gel and visualized by autoradiography.

[1] = tested on: potato ga20ox1 promoter (P1, P2, P3) and first intron; assay: Gel retardation assay with ga20ox1 promoter regions and first intron; format: binding
Source text: The first intron with partial flanking exon sequence (450 bp) of potato ga20ox1 and its promoter (981 bp, provided by Dr. Salomé Prat, CSIC Cantoblanco Campus, Univ. of Madrid, Spain) were used for gel mobility shift assays. Polymerase chain reaction (PCR) was used to amplify three regions of the promoter: -981 to 636 (P1), -660 to 307 (P2), and -331 to 0 (P3). About a 25-bp overlap was maintained between P1 and P2 or P2 and P3 in the chance that the protein-binding site would span the overlapped region. The first intron of this gene was amplified from potato genomic DNA by using PCR and the oligos 5′-[…]-3′ (SEQ ID NO:21) and 5′-[…]-3′ (SEQ ID NO:22) as primers. These primers were designed based on the site of the first intron of the tobacco GA20 oxidase gene Ntc12. The four fragments were purified on a 1.4% agarose gel and labeled with α^32P-dATP using Klenow fragment. […]
In the competition assays, unlabeled double-stranded DNA fragments (10×, 25×, 50×, 100×) were incubated with the recombinant protein before the addition of the radioactive probe. The dissociation rates were determined by adding 500-fold more cold DNA fragments to the DNA-binding reactions that were being incubated on ice, and loaded onto the running gel every 10 minutes. […]

CaMV 35S promoter = assay: Transcription assay, GUS reporter driven by CaMV 35S promoter in tobacco protoplasts; format: cell-based, cauliflower mosaic virus
Protocol: FIGS. 24A-C show schematics of constructs (FIG. 24A) and the repression effect of StBEL-05 and POTH1 on the ga20ox1 promoter (FIG. 24B) and on the 35S CaMV promoter (FIG. 24C). The construct with the LUC gene under the control of the cauliflower mosaic virus (CaMV) 35S promoter was used as an internal control. Each transfection was performed three times. Relative GUS-LUC activity was calculated with reporter alone set as 100%. Data are means±SE.
For each transfection analysis, 700 μL of tobacco protoplasts (prepared as described above) were mixed with 30 μL 2 M KCl and plasmid DNA in an electroporation cuvette with 0.4-cm electrode gap. […]
Luciferase assays were performed by injecting 100-μL luciferase substrate (Promega, Madison, Wis.) into 20 μL of extract and measuring the emitted photons for 15 seconds in a TD-20 luminometer (Turner Designs, Sunnyvale, Calif.). […] A fluorescence multiwell plate reader, Fluoroskan II (MTX labs, Vienna, Va.), was used to measure GUS activity at 365 nm (excitation) and 455 nm (emission). Each sample was measured three times for both LUC and GUS activity. Relative GUS-LUC activity was calculated by dividing the ratio of GUS activity to LUC activity from different effectors with the ratio from reporter plasmid alone. Relative activities calculated from three transfection replications were presented as a mean±SE.

B1: StBEL-05 protein from pGEM11Z (in vitro transcription/translation) (other)
chain: MYYQGTSDNTNIQADHQQRHNHGNSNNNNIQTLYLMNPNNYMQGYTTSDTQQQQQLLFLNSSPAASNALCHANIQHAPLQQQHFVGVPLPAVSLHDQINHHGLLQRMWNNQDQSQQVIVPSSTGVSATSCGGITTDLASQLAFQRPIPTPQHRQQQQQQGGLSLSLSPQLQQQISFNNNISSSSPRTNNVTIRGTLDGSSSNMVLGSKYLKAAQELLDEVVNIVGKSIKGDDQKKDNSMNKESMPLASDVNTNSSGGGESSSRQKNEVAVELTTAQRQELQMKKAKLLAMLEEVEQRYRQYHHQMQIIVLSFEQVAGIGSAKSYTQLALHAISKQFRCLKDAIAEQVKATSKSLGEEEGLGGKIEGSRLKFVDHHLRQQRALQQIGMMQPNAWRPQRGLPERAVSVLRAWLFEHFLHPYPKDSDKIMLAKQTGLTRSQVSNWFINARVRLWKPMVEEMYLEEVKNQEQNSTNTSGDNKNKETNISAPNEEKHPIITSSLLQDGITTTQAEISTSTISTSPTAGASLHHAHNFSFLGSFNMDNTTTTVDHIENNAKKQRNDMHKFSPSSILSSVDMEAKARESSNKGFTNPLMAAYAMGDFGRFDPHDQQMTANFHGNNGVSLTLGLPPSENLAMPVSQQNYLSNDLGSRSEMGSHYNRMGYENIDFQSGNKRFPTQLLPDFVTGNLGT
notes: 35S-methionine labelled prey; also called p11Z-5
- binding result (GAD protein alone): no binding
- binding to ga20ox1 regulatory regions (mobility shift) [1]: retarded the mobility of all three promoter sequences and the first intron
- effect on the activity of the CaMV 35S promoter (CaMV 35S promoter): Neither StBEL-05 nor POTH1 showed any effect
